The source of these data is EP4640225A1 (dated 2025).

Common to all, as to assay: activation reporter or marker
The target in experiment [1] is T1, KK-LC-1 peptide on HLA-B*15:01 (human).
T1 peptide: RQKRILVNL

In experiment [2] the target is T2, KK-LC-1 peptide on HLA-A*24:02 (human).
T2 peptide: RFQRNTGEM

Experiment [3] deals with T3, KK-LC-1 peptide on HLA-A*26:03 (human).
T3 peptide: RFQRNTGEM

Experiment [4] deals with T4, KK-LC-1 peptide on HLA-B*15:01 (human).
T4 peptide: RFQRNTGEM

Experiment [5] concerns the target T5, KK-LC-1 peptide on HLA-B*51:01 (human).
T5 peptide: RFQRNTGEM

Experiment [6] has as its target T6, KK-LC-1 peptide on HLA-C*07:02 (human).
T6 peptide: RFQRNTGEM

Experiment [7] has as its target T7, KK-LC-1 peptide on HLA-C*14:02 (human).
T7 peptide: RFQRNTGEM

B1: pt. 1-ex08TCR (TCR, V domains shown)
Valpha: KDQVFQPSTVASSEGAVVEIFCNHSVSNAYNFFWYLHFPGCAPRLLVKGSKPSQQGRYNMTYERFSSSLLILQVREADAAVYYCAVEDVPVNDYKLSFGAGTTVTVRA
Vbeta: DAGITQSPRHKVTETGTPVTLRCHQTENHRYMYWYRQDPGHGLRLIHYSYGVKDTDKGEVSDGYSVSRSKTEDFLLTLESATSSQTSVYFCAISAEGTYEQYFGPGTRLTVT
For B1, the binding result in experiment [1] is listed as “recognises”.

B2: pt. 2-ex08TCR (TCR, V domains shown)
Valpha: GESVGLHLPTLSVQEGDNSIINCAYSNSASDYFIWYKQESGKGPQFIIDIRSNMDKRQGQRVTVLLNKTVKHLSLQIAATQPGDSAVYFCAEIPWGGSQGNLIFGKGTKLSVKP
Vbeta: DTGVSQDPRHKITKRGQNVTFRCDPISEHNRLYWYRQTLGQGPEFLTYFQNEAQLEKSRLLSDRFSAERPKGSFSTLEIQRTEQGDSAMYLCASSRDDREYFGEGSWLTVV
Take B2: the binding result in experiment [2] is recorded as “no recognition”; in experiment [3] it was “no recognition”; in experiment [4] it was “no recognition”; in experiment [5], “no recognition”; in experiment [6], “no recognition”; in experiment [7], “recognises”.

B3: pt. 2-ex09TCR (TCR, V domains shown)
Valpha: GQNIDQPTEMTATEGAIVQINCTYQTSGFNGLFWYQQHAGEAPTFLSYNVLDGLEEKGRFSSFLSRSKGYSYLLLKELQMKDSASYLCAVDDGGATNKLIFGTGTLLAVQP
Vbeta: ETGVTQSPTHLIKTRGQQVTLRCSSQSGHNTVSWYQQALGQGPQFIFQYYREEENGRGNFPPRFSGLQFPNYSSELNVNALELDDSALYLCASSTRDRGTYEQYFGPGTRLTVT
For the molecule B3, the binding result in experiment [1] is “recognises”.

B4: pt. 1-ex15TCR (TCR, V domains shown)
Valpha: AQKVTQAQTEISVVEKEDVTLDCVYETRDTTYYLFWYKQPPSGELVFLIRRNSFDEQNEISGRYSWNFQKSTSSFNFTITASQVVDSAVYFCALSDPEESGYALNFGKGTSLLVTP
Vbeta: DTGVSQDPRHKITKRGQNVTFRCDPISEHNRLYWYRQTLGQGPEFLTYFQNEAQLEKSRLLSDRFSAERPKGSFSTLEIQRTEQGDSAMYLCASSSNEKLFFGSGTQLSVL
For B4, the binding result in experiment [1] is “recognises”.
